Data taken from US20120329986A1.
Numbered stars: 1 amine (or outer) side, 2 acyl side, 3 side chain; on linkers, the order of the positions; unused ones are H or OH. Square brackets hold non-standard residues; d marks the D form. Primed or numbered codes have the meaning given here. Ends that are not written are not given here. dTrp(2-Me) = Cc1[nH]c2ccccc2c1C[C@@H](N)C(=O)O; azaPhe = O=C(N(Cc1ccccc1)N[*:1])[*:2]; azaLeu = CC(C)CN(N[*:1])C(=O)[*:2]; azaTyr′ = not defined here; HAIC = not defined here; azaGly = NNC(=O)O; Mpa = O=C(O)CCS

Each binder was assayed against recombinant soluble His-tagged CD36 (assay: SPR, His-tagged CD36 held on the Cu-NTA peptide monolayer, linear Langmuir plot).
Sequence of recombinant soluble His-tagged CD36 (P16671 30-439): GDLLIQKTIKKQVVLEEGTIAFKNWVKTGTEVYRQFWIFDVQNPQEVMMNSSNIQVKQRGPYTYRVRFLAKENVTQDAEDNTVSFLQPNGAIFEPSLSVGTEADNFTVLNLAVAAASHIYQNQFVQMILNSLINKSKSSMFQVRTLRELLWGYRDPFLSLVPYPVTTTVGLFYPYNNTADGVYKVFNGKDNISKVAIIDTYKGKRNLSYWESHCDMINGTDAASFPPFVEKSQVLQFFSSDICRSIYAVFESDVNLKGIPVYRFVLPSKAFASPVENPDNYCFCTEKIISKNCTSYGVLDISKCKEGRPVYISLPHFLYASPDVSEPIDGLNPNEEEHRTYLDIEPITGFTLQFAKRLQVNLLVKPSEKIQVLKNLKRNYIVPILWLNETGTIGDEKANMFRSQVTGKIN

Row | Kd [nM] | Binder
1 | 380 | A[dW]A[azaPhe][dF]K-NH2 (N-terminus assumed; SMILES C[C@H](N)C(=O)N[C@H](Cc1c[nH]c2ccccc12)C(=O)N[C@@H](C)C(=O)NN(Cc1ccccc1)C(=O)N[C@H](Cc1ccccc1)C(=O)N[C@@H](CCCCN)C(N)=O) [CP-3(iv)]
2 | 1400 | H[dW][azaLeu]W[dF]A-NH2 (N-terminus assumed; SMILES CC(C)CN(NC(=O)[C@@H](Cc1c[nH]c2ccccc12)NC(=O)[C@@H](N)Cc1c[nH]cn1)C(=O)N[C@@H](Cc1c[nH]c2ccccc12)C(=O)N[C@H](Cc1ccccc1)C(=O)N[C@@H](C)C(N)=O) [CP-2B(i)]
3 | 22 | H[dW]A[azaTyr′][dF]K-NH2 [DBG-178(27)]
4 | 44 | H[dW][azaGly]W[dF]K-NH2 [CP-2A(v)]
5 | 82 | [HAIC][dTrp(2-Me)][dK]W[dF]K-NH2 (reading uncertain) [EP80317]

What follows are binders tested against CD36 receptor (in the src-kinase cellular assay) (assay: cell-based or functional assay).

Row | SRC-kinase cellular assay EC50 [nM] | Binder
6 | 44 | A[dW]A[azaPhe][dF]K-NH2 (N-terminus assumed; SMILES C[C@H](N)C(=O)N[C@H](Cc1c[nH]c2ccccc12)C(=O)N[C@@H](C)C(=O)NN(Cc1ccccc1)C(=O)N[C@H](Cc1ccccc1)C(=O)N[C@@H](CCCCN)C(N)=O) [CP-3(iv)]
7 | > 10000 | H[dW][azaLeu]W[dF]A-NH2 (N-terminus assumed; SMILES CC(C)CN(NC(=O)[C@@H](Cc1c[nH]c2ccccc12)NC(=O)[C@@H](N)Cc1c[nH]cn1)C(=O)N[C@@H](Cc1c[nH]c2ccccc12)C(=O)N[C@H](Cc1ccccc1)C(=O)N[C@@H](C)C(N)=O) [CP-2B(i)]
8 | 63 | H[dW]A[azaTyr′][dF]K-NH2 [DBG-178(27)]
9 | 26 | H[dW][azaGly]W[dF]K-NH2 [CP-2A(v)]

What follows are binders tested against nonspecific proteins present in blood serum (assay: SPR, mass of serum proteins adsorbed on the peptide self-assembled monolayer on gold).

Row | nonspecific adsorption (ΔΓnonspecific) [ng/cm^2] | Binder
10 | 32 | [Mpa]HHHDD [3-MPA-HHHDD]
11 | 34 | [Mpa]DSDSD-OH (SMILES O=C(O)C[C@H](NC(=O)[C@H](CO)NC(=O)[C@H](CC(=O)O)NC(=O)[C@H](CO)NC(=O)[C@H](CC(=O)O)NC(=O)CCS)C(=O)O) [3-MPA-DSDSD-OH]
12 | 39 | [Mpa]LLLSS [3-MPA-LLLSS]
13 | 56 | [Mpa]DDDHH [3-MPA-DDDHH]
14 | 274 | [Mpa]DHDHD-OH (SMILES O=C(O)C[C@H](NC(=O)[C@H](Cc1c[nH]cn1)NC(=O)[C@H](CC(=O)O)NC(=O)[C@H](Cc1c[nH]cn1)NC(=O)[C@H](CC(=O)O)NC(=O)CCS)C(=O)O) [3-MPA-DHDHD-OH]
15 | 79 | [Mpa]SSSHH [3-MPA-SSSHH]
16 | 174 | [Mpa]LLHHDD-OH (SMILES CC(C)C[C@H](NC(=O)CCS)C(=O)N[C@@H](CC(C)C)C(=O)N[C@@H](Cc1c[nH]cn1)C(=O)N[C@@H](Cc1c[nH]cn1)C(=O)N[C@@H](CC(=O)O)C(=O)N[C@@H](CC(=O)O)C(=O)O) [3-MPA-LLHHDD-OH]
17 | 23 | [Mpa]SSSDD [3-MPA-SSSDD]
18 | 45 | [Mpa]LLLHH [3-MPA-LLLHH]
19 | 149 | [Mpa]GGHHDD-OH (SMILES O=C(O)C[C@H](NC(=O)[C@H](CC(=O)O)NC(=O)[C@H](Cc1c[nH]cn1)NC(=O)[C@H](Cc1c[nH]cn1)NC(=O)CNC(=O)CNC(=O)CCS)C(=O)O) [3-MPA-GGHHDD-OH]
20 | 48 | [Mpa]HHHSS [3-MPA-HHHSS]
21 | 69 | [Mpa]DDDSS [3-MPA-DDDSS]
22 | 12 | [Mpa]LHDLHD-OH (SMILES CC(C)C[C@H](NC(=O)CCS)C(=O)N[C@@H](Cc1c[nH]cn1)C(=O)N[C@@H](CC(=O)O)C(=O)N[C@@H](CC(C)C)C(=O)N[C@@H](Cc1c[nH]cn1)C(=O)N[C@@H](CC(=O)O)C(=O)O) [3-MPA-LHDLHD-OH]
23 | 35 | [Mpa]LLLDD [3-MPA-LLLDD]
24 | 17 | [Mpa]SHDSHD-OH (SMILES O=C(O)C[C@H](NC(=O)[C@H](Cc1c[nH]cn1)NC(=O)[C@H](CO)NC(=O)[C@H](CC(=O)O)NC(=O)[C@H](Cc1c[nH]cn1)NC(=O)[C@H](CO)NC(=O)CCS)C(=O)O) [3-MPA-SHDSHD-OH]
25 | 218 | [Mpa]GGGGD-OH (SMILES O=C(O)C[C@H](NC(=O)CNC(=O)CNC(=O)CNC(=O)CNC(=O)CCS)C(=O)O) [3-MPA-GGGGD-OH]
